What was measured:
[1] = molecular target: human Fc gamma receptor IIIA, polymorphism F176 (human) (UniProt P08637); assay: BLI; Octet RED384; receptors loaded on HIS1K or SAX biosensors, probed into mAbs in a dilution series (2000, 100, 50, 25, 12.5 ug/mL [sic]); pH 7.4; 1:1 model; apparent affinity
[2] = molecular target: human Fc gamma receptor IIIB, polymorphism NA1 (human) (UniProt O75015); assay: as above
[3] = molecular target: human Fc gamma receptor IIA, polymorphism R167 (human) (UniProt P12318); assay: as above
Sequence of human Fc gamma receptor IIA, polymorphism R167 (human) (P12318 34-217 H167R): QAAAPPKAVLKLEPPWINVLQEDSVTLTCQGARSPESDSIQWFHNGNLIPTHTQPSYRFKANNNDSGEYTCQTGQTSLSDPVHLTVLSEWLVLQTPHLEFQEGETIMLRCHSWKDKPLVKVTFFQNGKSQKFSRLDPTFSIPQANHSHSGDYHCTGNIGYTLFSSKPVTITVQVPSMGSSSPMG

[4] = molecular target: human Fc gamma receptor IIIA, polymorphism V176 (human) (UniProt P08637); assay: as above
Sequence of human Fc gamma receptor IIIA, polymorphism V176 (human) (P08637 17-208 F176V): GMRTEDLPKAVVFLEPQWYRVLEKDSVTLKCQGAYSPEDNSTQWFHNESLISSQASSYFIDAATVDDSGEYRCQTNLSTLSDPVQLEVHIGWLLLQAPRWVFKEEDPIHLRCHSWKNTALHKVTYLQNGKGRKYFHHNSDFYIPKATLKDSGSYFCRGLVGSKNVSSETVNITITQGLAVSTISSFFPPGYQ

[5] = molecular target: human Fc gamma receptor IIA, polymorphism H167 (human) (UniProt P12318); assay: as above
Sequence of human Fc gamma receptor IIA, polymorphism H167 (human) (P12318 34-217): as the sequence (P12318 34-217 H167R) above, with R134H counted along it

[6] = molecular target: human Fc gamma receptor IIIB, polymorphism NA2 (human) (UniProt O75015); assay: as above
[7] = molecular target: human Fc gamma receptor I (FcγRI) (human) (UniProt P12314); assay: as above
Sequence of human Fc gamma receptor I (FcγRI) (human) (P12314 16-292): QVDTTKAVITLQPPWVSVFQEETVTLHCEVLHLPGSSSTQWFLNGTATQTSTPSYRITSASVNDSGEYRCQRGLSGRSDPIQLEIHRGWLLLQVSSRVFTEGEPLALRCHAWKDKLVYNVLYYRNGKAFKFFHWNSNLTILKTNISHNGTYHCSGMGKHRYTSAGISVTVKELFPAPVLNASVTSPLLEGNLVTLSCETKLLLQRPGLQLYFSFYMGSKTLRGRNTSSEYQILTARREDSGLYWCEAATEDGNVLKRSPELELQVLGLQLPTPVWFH

[8] = molecular target: human Fc gamma receptor IIB (FcγRIIB) (human) (UniProt P31994); assay: as above
Sequence of human Fc gamma receptor IIB (FcγRIIB) (human) (P31994 43-217): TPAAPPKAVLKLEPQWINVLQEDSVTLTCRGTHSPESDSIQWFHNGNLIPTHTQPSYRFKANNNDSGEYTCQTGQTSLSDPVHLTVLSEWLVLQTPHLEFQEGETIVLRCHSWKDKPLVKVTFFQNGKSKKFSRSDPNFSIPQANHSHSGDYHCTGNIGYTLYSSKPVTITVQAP

[9] = molecular target: rhesus neonatal Fc receptor (FcRn) (rhesus) (UniProt Q6V7J5); assay: BLI; Octet RED384; receptors loaded on HIS1K or SAX biosensors and probed into mAbs in a dilution series (2000, 100, 50, 25, 12.5 μg/mL as printed); pH 7.4; 1:1 model; apparent
[10] = molecular target: human neonatal Fc receptor (FcRn) (human) (UniProt P55899); assay: as above
Sequence of human neonatal Fc receptor (FcRn) (human) (P55899 24-297, chain 1 of 2): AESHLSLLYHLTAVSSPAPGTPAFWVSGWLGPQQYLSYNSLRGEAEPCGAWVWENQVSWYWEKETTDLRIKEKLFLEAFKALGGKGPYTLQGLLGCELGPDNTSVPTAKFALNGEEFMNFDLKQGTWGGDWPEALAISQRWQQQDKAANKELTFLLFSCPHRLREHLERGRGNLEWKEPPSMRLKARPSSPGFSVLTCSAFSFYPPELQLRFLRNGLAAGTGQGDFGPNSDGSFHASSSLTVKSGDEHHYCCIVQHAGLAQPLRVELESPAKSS
Sequence of human neonatal Fc receptor (FcRn) (human) (P61769 21-119, chain 2 of 2, further chain): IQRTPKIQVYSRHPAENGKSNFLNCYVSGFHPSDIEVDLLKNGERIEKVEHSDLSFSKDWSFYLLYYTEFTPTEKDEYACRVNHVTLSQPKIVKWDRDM

[11] = molecular target: rhesus neonatal Fc receptor (FcRn) (rhesus) (UniProt Q6V7J5); assay: BLI; Octet RED384; receptors loaded on HIS1K or SAX biosensors and probed into mAbs in a 2-fold dilution series (20, 10, 5, 2.5, 1.25 μg/mL); pH 6.0; 1:1 model; apparent
[12] = molecular target: human neonatal Fc receptor (FcRn) (human) (UniProt P55899); assay: as above

Sequence of human Fc gamma receptor IIIB, polymorphism NA1 (human) (O75015 17-233): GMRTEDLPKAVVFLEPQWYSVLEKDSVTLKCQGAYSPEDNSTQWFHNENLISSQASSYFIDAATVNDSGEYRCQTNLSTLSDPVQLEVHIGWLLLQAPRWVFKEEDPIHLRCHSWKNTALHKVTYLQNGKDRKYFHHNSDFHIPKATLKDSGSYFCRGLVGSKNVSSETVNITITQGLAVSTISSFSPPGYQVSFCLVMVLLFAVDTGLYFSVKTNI
Sequence of human Fc gamma receptor IIIA, polymorphism F176 (human) (P08637 17-208): as the sequence (P08637 17-208 F176V) above, with V160F counted along it

In the case of CIS43 human monoclonal antibody, the Kd [1] is reported as 1740 nM, the koff [1] is reported as 0.273 s⁻¹ and the kon [1] is reported as 157000 M⁻¹ s⁻¹. For the same substance, the Kd [2] was 1030 nM, the koff [2] was 0.442 s⁻¹ and the kon [2] was 430000 M⁻¹ s⁻¹. For the same substance, the Kd [3] was 1480 nM, the koff [3] was 0.514 s⁻¹ and the kon [3] was 348000 M⁻¹ s⁻¹. The Kd [4] was 652 nM, the koff [4] was 0.105 s⁻¹ and the kon [4] was 161000 M⁻¹ s⁻¹. The Kd [5] was 3840 nM, the koff [5] was 0.676 s⁻¹ and the kon [5] was 176000 M⁻¹ s⁻¹. For the same substance, the Kd [6] was 1280 nM, the koff [6] was 0.419 s⁻¹ and the kon [6] was 327000 M⁻¹ s⁻¹. It also gave a Kd [7] of 14.8 nM, a koff [7] of 0.00278 s⁻¹ and a kon [7] of 187000 M⁻¹ s⁻¹. For the same substance, the Kd [8] was 3130 nM, the koff [8] was 0.812 s⁻¹ and the kon [8] was 259000 M⁻¹ s⁻¹.
CIS43LS (antibody) showed a Kd [9] of 262 nM, a Kd [10] of 234 nM and a Kd [11] of 25.1 nM. For the same substance, the Kd [12] was 6.2 nM.
CIS43 (antibody) gave a Kd [11] of 326 nM and a Kd [12] of 54.2 nM.
“CIS43LS (CIS43 with the LS mutations M451L/N457S in the CH3 domain of the Fc region) (antibody)” was tested, and the Kd [2] was 1190 nM, the koff [2] was 0.356 s⁻¹ and the kon [2] was 300000 M⁻¹ s⁻¹. It also gave a Kd [3] of 764 nM, a koff [3] of 0.349 s⁻¹ and a kon [3] of 457000 M⁻¹ s⁻¹. The Kd [4] was 550 nM, the koff [4] was 0.0433 s⁻¹ and the kon [4] was 78700 M⁻¹ s⁻¹. The Kd [5] was 2490 nM, the koff [5] was 0.598 s⁻¹ and the kon [5] was 240000 M⁻¹ s⁻¹. The Kd [6] was 854 nM, the koff [6] was 0.25 s⁻¹ and the kon [6] was 293000 M⁻¹ s⁻¹. It also gave a Kd [7] of 15.8 nM, a koff [7] of 0.00308 s⁻¹ and a kon [7] of 194000 M⁻¹ s⁻¹. It also gave a Kd [8] of 3800 nM, a koff [8] of 0.874 s⁻¹ and a kon [8] of 230000 M⁻¹ s⁻¹.
